Data: article PMC8446579

Molecular target: Candida parapsilosis ATCC 7330 imine reductase CpIM1 (Candida parapsilosis ATCC 7330)
Assay: SEC

Work on “Candida parapsilosis ATCC 7330 imine reductase CpIM1 (enzyme)” yielded a stoichiometry N of 2.
